For this data set, the system named is Pronase. The data set is described as follows: Protection of MNP-encapsulated catalase from proteolysis. In kind it is in vitro ADME. The settings on record: by 30 mins. The protocol: Protection and activity of MNP-encapsulated catalase. The capacity of MNP to protect the catalase cargo was measured using a proteolysis assay. Samples were incubated for 60 min at 37° C. with shaking in a 0.2 wt % buffered Pronase, a robust mixture of proteinases which completely digests proteins into individual amino acids. The amount of catalase retained by MNP post proteolysis was determined following MNP separation by centrifugation (20 min, 4° C. at […]) using the radioactivity assay described above. The enzymatic activity of MNP-bound catalase retained over time was measured in comparison with free catalase.

B1: free catalase: bovine liver catalase, not encapsulated (protein, UniProt P00432 2-527, looked up)
Catalase: ADNRDPASDQMKHWKEQRAAQKPDVLTTGGGNPVGDKLNSLTVGPRGPLLVQDVVFTDEMAHFDRERIPERVVHAKGAGAFGYFEVTHDITRYSKAKVFEHIGKRTPIAVRFSTVAGESGSADTVRDPRGFAVKFYTEDGNWDLVGNNTPIFFIRDALLFPSFIHSQKRNPQTHLKDPDMVWDFWSLRPESLHQVSFLFSDRGIPDGHRHMNGYGSHTFKLVNANGEAVYCKFHYKTDQGIKNLSVEDAARLAHEDPDYGLRDLFNAIATGNYPSWTLYIQVMTFSEAEIFPFNPFDLTKVWPHGDYPLIPVGKLVLNRNPVNYFAEVEQLAFDPSNMPPGIEPSPDKMLQGRLFAYPDTHRHRLGPNYLQIPVNCPYRARVANYQRDGPMCMMDNQGGAPNYYPNSFSAPEHQPSALEHRTHFSGDVQRFNSANDDNVTQVRTFYLKVLNEEQRKRLCENIAGHLKDAQLFIQKKAVKNFSDVHPEYGSRIQALLDKYNEEKPKNAVHTYVQHGSHLSAREKANL
As to B1, the “catalase activity on exposure to proteolytic enzymes” value is “total deactivation”.

The record behind these values is patent publication US9028829B2, “Uniform field magnetization and targeting of therapeutic formulations” (The Children's Hospital of Philadelphia, priority 2004, dated 2015).
